Earlier results as cited in article PMC4620043.
Read-outs that look alike come from different tables or passages of the source.

Key:
[1] = target: fibrin (Homo sapiens) (UniProt P02671)
[2] = target: fibrin (Homo sapiens) (UniProt P02671); remark: listed apart in the source

Substance	Kd [1] [µM]	Kd [2] [µM]
CREKA peptide	6	
GPRPP peptide		0.008
